PMC5773583, “Redundancy of protein disulfide isomerases in the catalysis of the inactivating disulfide switch in A Disintegrin and Metalloprotease 17” (Scientific Reports, 2018)
Bridge positions count the residues as written; N and C are the ends.

T1: PDIA6 C193S TRAP mutant (human, UniProt Q15084 20-440, C193S)
T1 construct: mature human PDIA6 with C193S (second cysteine of the CGHC motif of the a' domain), in pET28
T1 sequence (looked up): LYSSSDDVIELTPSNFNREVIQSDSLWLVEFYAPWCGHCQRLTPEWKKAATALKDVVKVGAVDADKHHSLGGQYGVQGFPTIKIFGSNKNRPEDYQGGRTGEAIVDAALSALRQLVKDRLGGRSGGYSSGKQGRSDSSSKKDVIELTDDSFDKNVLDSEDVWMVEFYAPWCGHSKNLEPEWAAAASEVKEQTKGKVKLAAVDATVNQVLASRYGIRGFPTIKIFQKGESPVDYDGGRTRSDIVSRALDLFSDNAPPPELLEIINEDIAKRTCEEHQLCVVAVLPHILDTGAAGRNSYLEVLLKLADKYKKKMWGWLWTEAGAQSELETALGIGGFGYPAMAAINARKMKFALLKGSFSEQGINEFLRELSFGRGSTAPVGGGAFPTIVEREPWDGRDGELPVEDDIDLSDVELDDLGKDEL

T2: protein disulfide isomerase PDIA3 (human, UniProt P30101 25-505)
T2 construct: mature human PDIA3 (MW 56.6 kDa), cloned into pET28; Monomeric by SEC-MALS; also called Erp57
T2 sequence (looked up): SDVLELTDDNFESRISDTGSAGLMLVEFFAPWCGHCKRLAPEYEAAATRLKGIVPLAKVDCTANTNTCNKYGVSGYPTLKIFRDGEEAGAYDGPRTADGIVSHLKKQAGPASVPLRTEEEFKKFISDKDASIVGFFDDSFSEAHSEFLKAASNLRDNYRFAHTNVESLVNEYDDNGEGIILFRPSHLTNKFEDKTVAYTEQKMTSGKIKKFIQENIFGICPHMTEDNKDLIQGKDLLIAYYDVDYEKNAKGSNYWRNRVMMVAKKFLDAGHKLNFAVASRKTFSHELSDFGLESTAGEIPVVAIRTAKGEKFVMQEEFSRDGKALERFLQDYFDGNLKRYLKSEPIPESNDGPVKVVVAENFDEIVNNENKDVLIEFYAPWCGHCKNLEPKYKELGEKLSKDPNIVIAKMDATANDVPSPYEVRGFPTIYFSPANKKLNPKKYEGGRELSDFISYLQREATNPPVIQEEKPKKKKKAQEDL

T3: PDIA6 C55S C58S mutant (human, UniProt Q15084 20-440, C55S | C58S)
T3 construct: mature human PDIA6 with both cysteines of the a domain exchanged (C55S, C58S), in pET28
T3 sequence (looked up): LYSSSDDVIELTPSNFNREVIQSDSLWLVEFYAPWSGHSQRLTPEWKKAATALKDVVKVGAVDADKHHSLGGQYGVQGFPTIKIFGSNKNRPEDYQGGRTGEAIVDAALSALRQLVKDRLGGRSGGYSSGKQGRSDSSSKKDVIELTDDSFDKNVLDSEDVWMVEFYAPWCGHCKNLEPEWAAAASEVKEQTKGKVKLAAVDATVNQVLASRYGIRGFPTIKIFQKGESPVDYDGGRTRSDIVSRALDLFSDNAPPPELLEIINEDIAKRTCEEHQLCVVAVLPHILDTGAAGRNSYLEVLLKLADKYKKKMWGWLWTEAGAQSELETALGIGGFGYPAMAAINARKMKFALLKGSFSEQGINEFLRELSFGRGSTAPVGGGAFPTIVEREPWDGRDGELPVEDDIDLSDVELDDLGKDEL

T4: PDIA6 double TRAP mutant (2 TRAP) C58S C193S (human, UniProt Q15084 20-440, C58S | C193S)
T4 construct: mature human PDIA6 with C58S and C193S, in pET28; also called PDIA6 C58S C193S; PDIA6_2 TRAP
T4 sequence (looked up): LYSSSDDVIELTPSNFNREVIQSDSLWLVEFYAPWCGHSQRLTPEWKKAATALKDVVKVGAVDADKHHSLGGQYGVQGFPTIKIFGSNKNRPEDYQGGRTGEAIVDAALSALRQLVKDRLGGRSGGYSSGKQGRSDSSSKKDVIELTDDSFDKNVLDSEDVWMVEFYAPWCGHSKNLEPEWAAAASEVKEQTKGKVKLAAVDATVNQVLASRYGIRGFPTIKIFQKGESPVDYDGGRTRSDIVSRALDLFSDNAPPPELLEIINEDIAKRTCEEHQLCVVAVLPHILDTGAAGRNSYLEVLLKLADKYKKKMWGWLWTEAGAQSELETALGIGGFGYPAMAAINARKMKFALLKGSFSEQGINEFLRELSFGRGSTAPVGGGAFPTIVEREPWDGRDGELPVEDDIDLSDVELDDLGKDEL

T5: PDIA6 C58S TRAP mutant (human, UniProt Q15084 20-440, C58S)
T5 construct: mature human PDIA6 with C58S (second cysteine of the CGHC motif of the a domain), in pET28
T5 sequence (looked up): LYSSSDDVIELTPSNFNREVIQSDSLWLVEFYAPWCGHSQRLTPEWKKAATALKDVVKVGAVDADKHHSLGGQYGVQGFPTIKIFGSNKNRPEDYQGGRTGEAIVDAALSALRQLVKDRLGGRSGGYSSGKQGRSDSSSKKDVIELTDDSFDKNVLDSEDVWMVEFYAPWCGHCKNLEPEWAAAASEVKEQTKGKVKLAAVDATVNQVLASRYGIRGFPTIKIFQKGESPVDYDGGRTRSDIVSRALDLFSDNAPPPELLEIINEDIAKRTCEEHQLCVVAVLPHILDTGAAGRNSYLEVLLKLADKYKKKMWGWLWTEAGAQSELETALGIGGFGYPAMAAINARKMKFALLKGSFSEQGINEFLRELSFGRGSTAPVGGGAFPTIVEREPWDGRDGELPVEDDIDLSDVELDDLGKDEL

T6: PDIA6 inverse TRAP mutant C55S C190S (human, UniProt Q15084 20-440, C55S | C190S)
T6 construct: mature human PDIA6 with the N-terminal cysteines of both CGHC motifs exchanged (C55S, C190S), in pET28; also called PDIA6 C55S C190S
T6 sequence (looked up): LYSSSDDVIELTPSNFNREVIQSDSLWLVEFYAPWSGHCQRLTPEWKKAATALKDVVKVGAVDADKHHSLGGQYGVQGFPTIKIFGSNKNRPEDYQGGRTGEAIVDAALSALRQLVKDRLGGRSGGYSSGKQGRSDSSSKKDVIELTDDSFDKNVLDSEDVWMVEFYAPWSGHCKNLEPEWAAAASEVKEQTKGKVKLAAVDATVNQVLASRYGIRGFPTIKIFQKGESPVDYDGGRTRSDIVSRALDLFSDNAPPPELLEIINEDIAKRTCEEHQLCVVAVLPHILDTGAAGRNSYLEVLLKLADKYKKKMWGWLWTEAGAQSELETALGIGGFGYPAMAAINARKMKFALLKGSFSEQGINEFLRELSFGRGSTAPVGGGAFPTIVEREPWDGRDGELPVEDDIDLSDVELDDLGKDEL

B1: protein disulfide isomerase PDIA6 (enzyme, human, UniProt Q15084 20-440, looked up)
chain: LYSSSDDVIELTPSNFNREVIQSDSLWLVEFYAPWCGHCQRLTPEWKKAATALKDVVKVGAVDADKHHSLGGQYGVQGFPTIKIFGSNKNRPEDYQGGRTGEAIVDAALSALRQLVKDRLGGRSGGYSSGKQGRSDSSSKKDVIELTDDSFDKNVLDSEDVWMVEFYAPWCGHCKNLEPEWAAAASEVKEQTKGKVKLAAVDATVNQVLASRYGIRGFPTIKIFQKGESPVDYDGGRTRSDIVSRALDLFSDNAPPPELLEIINEDIAKRTCEEHQLCVVAVLPHILDTGAAGRNSYLEVLLKLADKYKKKMWGWLWTEAGAQSELETALGIGGFGYPAMAAINARKMKFALLKGSFSEQGINEFLRELSFGRGSTAPVGGGAFPTIVEREPWDGRDGELPVEDDIDLSDVELDDLGKDEL
notes: mature human PDIA6 (MW 48.8 kDa), cloned into pET28; Dimer in solution by SEC-MALS; also called Erp5; wild-type PDIA6

Key:
[1] = target: the molecule itself; assay: SEC-MALS; Superdex 200 10/300 GL, 0.5 ml/minute, PBS pH 7.4; 100–500 µg protein per analysis
[2] = target: T7, protein disulfide isomerase PDIA1 (human, UniProt P07237 18-508); assay: MST; RED-NHS-labelled MPD constant at 20 nM, unlabelled PDI titrated (7.5 uM to 0.9537 nM, 1:2 series, 16 dilutions); PBS-P (PBS, 0.01% P20, pH 7.4), 25 °C; KD from the ligand-induced change of the initial fluorescence intensity; conditions: both partners purified
T7 construct: mature human PDIA1 (MW 57.6 kDa), cloned into pET28; Monomeric by SEC-MALS

[3] = target: B1; assay: as above; conditions: both partners purified
PDIA6 C193S TRAP mutant = target: T1, PDIA6 C193S TRAP mutant; assay: as above; conditions: both partners purified
[4] = target: T2, protein disulfide isomerase PDIA3; assay: as above; conditions: both partners purified
PDIA6 C55S C58S mutant = target: T3, PDIA6 C55S C58S mutant; assay: as above; conditions: both partners purified
[5] = target: T4, PDIA6 double TRAP mutant (2 TRAP) C58S …; assay: as above; conditions: both partners purified
PDIA6 C58S TRAP mutant = target: T5, PDIA6 C58S TRAP mutant; assay: as above; conditions: both partners purified
[6] = target: T6, PDIA6 inverse TRAP mutant C55S C190S; assay: as above; conditions: both partners purified

T7 sequence (P07237 18-508): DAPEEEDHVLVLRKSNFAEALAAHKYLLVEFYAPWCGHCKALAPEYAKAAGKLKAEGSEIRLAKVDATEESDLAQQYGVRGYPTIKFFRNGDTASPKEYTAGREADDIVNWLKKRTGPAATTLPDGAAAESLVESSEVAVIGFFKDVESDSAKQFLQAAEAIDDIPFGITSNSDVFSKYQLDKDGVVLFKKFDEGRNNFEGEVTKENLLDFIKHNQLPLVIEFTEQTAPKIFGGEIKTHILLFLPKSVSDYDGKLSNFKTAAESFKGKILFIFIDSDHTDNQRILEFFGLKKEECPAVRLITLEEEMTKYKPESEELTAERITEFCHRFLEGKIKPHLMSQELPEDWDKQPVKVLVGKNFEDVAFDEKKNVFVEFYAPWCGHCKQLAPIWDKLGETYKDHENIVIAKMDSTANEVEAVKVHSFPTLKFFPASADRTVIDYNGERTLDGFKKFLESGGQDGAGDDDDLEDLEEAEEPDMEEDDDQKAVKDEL

Row | Kd [2] [nM] | Kd [3] [nM] | Kd (PDIA6 C193S TRAP mutant) [nM] | Kd [4] [nM] | Kd (PDIA6 C55S C58S mutant) [nM] | Kd [5] [nM] | Kd (PDIA6 C58S TRAP mutant) [nM] | Kd [6] [nM] | Binder | stoichiometry N [1]
1 |  |  |  |  |  |  |  |  | B1 | 2
2 | 158 | 93 | 142 | 90 | 138 | 192 | 141 | 115 | open membrane-proximal domain (opMPD) of A Disintegrin and Metalloprotease 17 (ADAM17) (domain or fragment, UniProt P78536 581-642, looked up, disulfide 20-50, 55-61; also: labelled on amines with RED-NHS dye, membrane-proximal domain of ADAM17, open isomer, recombinant, 9.9 kDa; also called open conformation of the MPD) FCEREQQLESCACNETDNSCKVCCRDLSGRCVPYVDAEQKNLFLRKGKPCTVGFCDMNGKCE | 
3 | 211 | 61 | 91 | 55 | 191 | 151 | 113 | 116 | closed membrane-proximal domain (clMPD) of A Disintegrin and Metalloprotease 17 (ADAM17) (domain or fragment, UniProt P78536 581-642, looked up, disulfide 20-55, 50-61; also: labelled on amines with RED-NHS dye, membrane-proximal domain of ADAM17, closed disulfide isomer; it is the disulfide isomer of m9 and probably carries the same tag; also called closed MPD; closed isoform) FCEREQQLESCACNETDNSCKVCCRDLSGRCVPYVDAEQKNLFLRKGKPCTVGFCDMNGKCE | 
